B1: AP1-15B4 (antibody, V domains shown)
VH: EVHLVESGGDLVKPGGSLKLSCAASGFAFSDFAMSWVRQTPEKRLEWVAIIKSDDSYTYYPDSVRDRFTISRDNARNTLYLQMTSLRSEDTALYYCTKIYDAYFYAMDYWGQGTSVTVSS
VL: DIVRTQSPLSLSVSLGDQASISCRSSQSLLHSNGNTYLHWYLQKPGQSPKLLIYKVSNRFSGVPDRFSGSGSGTDFTLKISILEAEDLGIYFCSQSTHFPTFGGGTKLEIK
B2: AP4-29E10 (antibody, V domains shown)
VH: EVQLQQSGPELEKPGASVKISCKASGHSFTGYNMNWVKQSNDKSLEWIGNIAPYYGVTAYNQKFKGKATLTGDKSSSTAYMQLKSLASEDSAVYYCVLDTSGYASWGQGTLVTVSA
VL: DIVMTQATASLTVSLGQRATISCRASKSVSTSGYSYMHWYQQKPGQPPKLLIYLASNLESGVPARFSGSGSGTDFTLNIHPVEEEDAATYYCQHSREVPYTFGGGTKLELK
B3: AP4-24H11 (antibody, V domains shown)
VH: EVKPQESGPGLVKPSQSLSLTCTVTGYSITSNYAWNWIRQFPGNKLEWMGFISSYGTTTYNPSLKSRFSITRDTSKNQFFLQLHSVTIEDTGTYFCTREGDYWGQGTTLTVSS
VL: DIVMTQATLSLPVSLGDQASISCRSSQRLVPSNGNIYLHWFLQKPGQSPKLLIYKLSSRFSGVPDRFSGSGSGTDFTLKISRVESEDLGIYFCSQTTHVPYTFGGGTKLEIK

Key:
[1] = molecular target: T1, AIP-1 (S. aureus I native cyclic signaling peptide) (Staphylococcus aureus); test: competition ELISA on AP1-BSA
[2] = molecular target: T2, AIP-4 (S. aureus IV native cyclic signaling peptide) (Staphylococcus aureus); test: competition ELISA on AP4-BSA
[3] = molecular target: T1, AIP-1 (S. aureus I native cyclic …); test: competition ELISA on AP4-BSA
[4] = molecular target: T2, AIP-4 (S. aureus IV native cyclic …); test: competition ELISA on AP4-BSA, tested 5 different times
[5] = molecular target: T2, AIP-4 (S. aureus IV native cyclic …); test: cell-based or functional assay
[6] = molecular target: T2, AIP-4 (S. aureus IV native cyclic …); test: competition ELISA on AP4-BSA; remark: listed apart in the source

Binder	Kd [1] [nM]	Kd [2] [nM]	Kd [3] [µM]	Kd [4] [nM]	Real-Time PCR fold-change of eta mRNA in RN4850 [5] [fold]	Real-Time PCR fold-change of hla mRNA in RN4850 [5] [fold]	Real-Time PCR fold-change of rnaIII mRNA in RN4850 [5] [fold]	Real-Time PCR fold-change of spa mRNA in RN4850 [5] [fold]	rnaIII transcriptional level in S. aureus RN4850 during stationary growth phase (RT-PCR) [5] [fold]	Kd [6] [nM]
B1	800									
B2		24	3	2 to 110						
B3		90	5		-8.1	-5.2	-77	5.7	> 50	98

Source: US9394371
